Source: patent US20210388065A1 (published 2021)

How the values were obtained:
[1] = biological target: T1, SARS-CoV-2 Spike protein (Receptor Binding Domain, RBD) (UniProt P0DTC2 331-524); assay: ELISA
[2] = biological target: T1, SARS-CoV-2 Spike protein (Receptor …); assay: ELISA; remark: listed apart in the source

Binder	IC50 [1] [nM]	EC50 [2] [nM]
105-38 antibody (antibody, V domains shown) VH: EVQLVESGGGLVQPGGSLRLSCAASGFTFSSYWMHWVRQAPGKGLVWVSRINSDGSSTSYADSVKGRFTISRDNAKNTLYLQMNSLRAEDTAVYYCARVQWLRGEFDYWGQGTLVTVSS VL: DVVLTQPHSVSESPGKTVTISCTGSSGSIASNYVQWYQQRPGSAPTTVIYEDNQRPSGVPDRFSGSIDSSSNSASLTISGLKTEDEADYYCQSYDSSTDVVFGGGTELTVL	0.598	0.425
105-43 antibody (antibody, V domains shown) VH: EVQLVESGGGLVQPGGSLRLSCAASGFTFSSYDMHWVRQATGKGLEWISAIGTTGDIYYADSVKGRFTISRENAENSLYLQMNSLRAGDTAVYYCARYRGAFDVWGQGTMVTVSS VL: EIVMTQSPVTLSLSPGERATLSCRASQSVGTYLAWYQQKPGQAPRLLIYDASNRATRIPARFSGSGSGTDFTLTISSLEPEDFAVYYCQQGSNWPLTFGGGTKVEIK	59	12.1
414-3-2 antibody (antibody, V domains shown) VH: QVQLVESGGGVVQPGRSLRLSCAASGFTFSSYAMHWVRQAPGKGLEWVALISYDGSNKYYADSVKGRFTISRDNSKNTLYLQMNSLRAEDTAVYYCARDGGGWFDPWGQGTLVTVSS VL: QTVVTQPASVSGSPGQSITISCTGTSSDVGGYNYVSWYQQHPGKAPKLMIYDVSKRPSGVSNRFSGSKSGNTASLTISGLQAEDEADYYCSSYTSSSPWVFGGGTELTVL		6.66
414-1 antibody (antibody, V domains shown) VH: QVQLVQSGAEVKKPGASVKVSCKASGYTFTSYYMHWVRQAPGQGLEWMGIINPSGGSTSYAQKFQGRVTMTRDTSTSTVYMELSSLRSEDTAVYYCARGALGCSSTSCYPNNFDYWGQGTLVTVSS VL: not shown	6.68	1.26
105-9 antibody (antibody, V domains shown) VH: EVQLVESGGGLVKPGRSLRLSCTASGFTFGDYAMSWFRQAPGKGLEWVGFIRSKAYGWTTQYAASVKGRFTISRDDSKSIAYLQMKSLNSEDTAVYYCTRDPWGTTYFDYWGQGTLVTVSS VL: EIVMTQSPATLSVSPGERATLSCRASQSVSSNLAWYQQKPGQGPRLLIYGASTRATGVPARFSGSGSGTDFTLTISSLQSEDFAIYYCQHYNNWFTFGQGTKVEIK	25.2	15.1
